This note sets out measurements from patent US20180112202A1 (ACE BIOSCIENCES A S, published 2018).

The series deals with the molecule itself. Nature of the series: Native PAGE, self-association; the cell continues below as 'dimer ~7 forms visible from monomer to multimer'. The source says: Native PAGE was run for information of rhGALC formations at neutral pH. […] Final product TG1106 was compared to rhGALC in-house standard StG03 and the pattern was similar. It could be that the lowest band (apparent MW 80-100 kDa) is rhGALC monomer and the second band is rhGALC dimer, followed by formations adding on more rhGALC monomers and/or dimers. Up to seven forms of rhGALC were visualized on the gel. rhGALC dimer was the most pronounced independent on load. An earlier electron microscopy study has verified that several forms exist of which the major form has a diameter of ˜20 nm, which could correspond to rhGALC dimer.

B1: recombinant human Galactocerebroside beta-Galactosidase (rhGALC), full length 80 kDa form (enzyme)
chain: YVLDDSDGLGREFDGIGAVSGGGATSRLLVNYPEPYRSQILDYLFKPNFGASLHILKVEIGGDGQTTDGTEPSHMHYALDENYFRGYEWWLMKEAKKRNPNITLIGLPWSFPGWLGKGFDWPYVNLQLTAYYVVTWIVGAKRYHDLDIDYIGIWNERSYNANYIKILRKMLNYQGLQRVKIIASDNLWESISASMLLDAELFKVVDVIGAHYPGTHSAKDAKLTGKKLWSSEDFSTLNSDMGAGCWGRILNQNYINGYMTSTIAWNLVASYYEQLPYGRCGLMTAQEPWSGHYVVESPVWVSAHTTQFTQPGWYYLKTVGHLEKGGSYVALTDGLGNLTIIIETMSHKHSKCIRPFLPYFNVSQQFATFVLKGSFSEIPELQVWYTKLGKTSERFLFKQLDSLWLLDSDGSFTLSLHEDELFTLTTLTTGRKGSYPLPPKSQPFPSTYKDDFNVDYPFFSEAPNFADQTGVFEYFTNIEDPGEHHFTLRQVLNQRPITWAADASNTISIIGDYNWTNLTIKCDVYIETPDTGGVFIAGRVNKGGILIRSARGIFFWIFANGSYRVTGDLAGWIIYALGRVEVTAKKWYTLTLTIKGHFASGMLNDKSLWTDIPVNFPKNGWAAIGTHSFEFAQFDNFLVEATR
modifications: glycosylated (about 7% carbohydrate w:w, 2-3 mol mannose-6-phosphate per mol), sites not stated
notes: Expressed in CHO cells and purified from harvest; P45803 looks like a misprint; also called Galactocerebrosidase; Galactosylceramidase
Consider B1, for which the binding result is reported as “binds”.
